The target in assay [1] is HCV protease (hepatitis C virus (HCV)). In words: cell-based or functional assay.
For assay [2] the target is unchanged. Description: inhibition constant for HCV protease (FIG. 1, left); method not described.
Assay [3] has the same target. In words: apparent binding affinity for HCV protease; method not described.
Assay [4] deals with T1, S. aureus sortase A (S. aureus), Q2FV99.
T1 chain: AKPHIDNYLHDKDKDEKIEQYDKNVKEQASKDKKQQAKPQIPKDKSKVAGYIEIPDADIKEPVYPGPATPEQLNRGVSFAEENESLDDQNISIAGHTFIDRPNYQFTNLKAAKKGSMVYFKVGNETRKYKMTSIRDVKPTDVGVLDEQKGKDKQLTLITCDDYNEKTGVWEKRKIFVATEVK
Description: apparent binding affinity (IC50) for S. aureus sortase A; assay not described.

For assay [5], the target named is HCV protease (hepatitis C virus (HCV)). In words: affinity of metallopeptide for HCV protease; method not described.
Assay [6] has as its target T2, B. anthracis lethal factor (B. anthracis), P15917.
T2 chain: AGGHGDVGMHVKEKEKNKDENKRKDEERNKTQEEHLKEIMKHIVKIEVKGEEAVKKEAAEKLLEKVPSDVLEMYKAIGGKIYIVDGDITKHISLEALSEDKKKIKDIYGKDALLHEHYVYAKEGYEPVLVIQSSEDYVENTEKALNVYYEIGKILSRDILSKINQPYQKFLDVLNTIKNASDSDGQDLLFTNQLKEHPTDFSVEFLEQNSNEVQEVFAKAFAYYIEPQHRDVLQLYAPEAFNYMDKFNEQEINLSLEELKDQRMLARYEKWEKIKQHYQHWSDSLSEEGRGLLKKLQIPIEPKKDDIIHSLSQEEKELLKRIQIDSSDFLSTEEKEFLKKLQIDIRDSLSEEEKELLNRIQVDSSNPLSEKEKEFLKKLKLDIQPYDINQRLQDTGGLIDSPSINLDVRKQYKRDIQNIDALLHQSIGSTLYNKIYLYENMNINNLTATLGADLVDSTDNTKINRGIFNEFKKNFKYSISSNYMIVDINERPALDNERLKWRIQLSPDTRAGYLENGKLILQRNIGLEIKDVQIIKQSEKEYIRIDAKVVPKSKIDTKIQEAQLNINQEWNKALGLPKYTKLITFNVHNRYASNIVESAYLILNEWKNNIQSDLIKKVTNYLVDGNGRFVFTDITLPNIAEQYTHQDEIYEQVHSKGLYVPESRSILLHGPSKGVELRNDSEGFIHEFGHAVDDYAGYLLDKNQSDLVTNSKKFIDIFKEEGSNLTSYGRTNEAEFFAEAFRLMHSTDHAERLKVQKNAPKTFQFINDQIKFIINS

Assay [7] concerns the target T2, B. anthracis lethal factor (B. …). In words: cell-based or functional assay.
Assay [8] deals with T3, metalloproteinase ECE-1 protease, P42892.
T3 chain: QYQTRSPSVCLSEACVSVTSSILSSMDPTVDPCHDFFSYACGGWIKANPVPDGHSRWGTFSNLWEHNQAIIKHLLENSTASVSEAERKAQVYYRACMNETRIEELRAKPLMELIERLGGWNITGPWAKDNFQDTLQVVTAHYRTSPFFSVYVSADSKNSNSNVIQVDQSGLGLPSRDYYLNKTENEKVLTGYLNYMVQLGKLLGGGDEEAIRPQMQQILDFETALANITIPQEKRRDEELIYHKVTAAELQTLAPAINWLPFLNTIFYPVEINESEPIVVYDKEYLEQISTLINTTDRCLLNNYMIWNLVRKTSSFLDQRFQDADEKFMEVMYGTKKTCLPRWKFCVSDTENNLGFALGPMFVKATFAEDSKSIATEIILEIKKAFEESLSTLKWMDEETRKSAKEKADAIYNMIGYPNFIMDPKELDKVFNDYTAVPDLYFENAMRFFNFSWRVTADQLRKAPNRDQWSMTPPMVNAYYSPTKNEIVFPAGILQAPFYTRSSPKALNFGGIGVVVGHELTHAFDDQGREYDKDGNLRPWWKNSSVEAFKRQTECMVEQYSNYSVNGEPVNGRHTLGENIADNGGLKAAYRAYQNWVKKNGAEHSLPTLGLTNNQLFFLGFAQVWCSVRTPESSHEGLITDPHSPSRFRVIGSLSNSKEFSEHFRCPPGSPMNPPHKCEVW
Description: apparent binding affinity for ECE-1; method not described.

The target is the same in assay [9]. In words: cell-based or functional assay.

Where no end group is shown, it is not given here. [ ]: non-standard residue; d: D form. Cha = N[C@@H](CC1CCCCC1)C(=O)O

From US20140377289A1, “Metallodrugs Having Improved Pharmacological Properties, and Methods of Manufacture and Use Thereof” (MetalloPharm, LLC, priority 2011, published 2014) come the findings set out here.

B1: Cu-GGHGDeLI(Cha)C-CO2^- (peptide)
peptide: GGHGD[dE]LI[Cha]C-OH
modifications: also: Cu complex
On to B1, for which, in assay [1], the kinact is 0.0014 min⁻¹ and the rate constant for inactivation kinact was less than 0.083 h⁻¹. Further, the Ki in assay [2] amounted to 0.5 µM. For the same molecule, the Ka in assay [3] came out at 2e+06 M⁻¹.

B2: Cu-… (peptide)
peptide: GGHGLPETG
modifications: not checked
As to B2, the IC50 in assay [4] was greater than 100 µM.

B3: Gly-Gly-His-Asp-D-Glu-Leu-Ile-Cha-Cys-Pro-Cha-Asp-Leu (peptide)
peptide: GGHD[dE]LI[Cha]CP[Cha]DL
In assay [5], B3 showed an affinity of 10 nM.

B4: Cu-GCHP (peptide)
peptide: GCHP
modifications: not checked
On to B4, for which the Ka in [6] came to 45000 M⁻¹. In addition, in assay [7], the kinact came to 0.077 min⁻¹.

B5: Cu-GGHGLPET (peptide)
peptide: GGHGLPET
modifications: not checked
For B5, in assay [4], the IC50 is greater than 100 µM.

B6: Cu-GGHGGDF (peptide)
peptide: GGHGGDF
modifications: not checked
In the case of B6, in assay [8], the Ka turned out to be 80000 M⁻¹. For the same molecule, in assay [9], the kinact was 0.5 min⁻¹.

B7: Cu-GGHGDeLI(Cha)T (peptide)
peptide: GGHGD[dE]LI[Cha]T
modifications: also: Cu complex
With B7, in [1], the kinact is 0.042 min⁻¹. For the same molecule, the Ka in assay [3] turned out to be 33000 M⁻¹.

B8: Cu-GGHLPETG (peptide)
peptide: GGHLPETG
modifications: not checked
As to B8, the IC50 in assay [4] is greater than 100 µM.

B9: Cu-KGHK (peptide)
peptide: KGHK
modifications: not checked
In the case of B9, the Ka in [6] worked out at 125000 M⁻¹. For the same molecule, the kinact in assay [7] came to 0.035 min⁻¹.

B10: Cu-GGHLPET (peptide)
peptide: GGHLPET
modifications: not checked
For the molecule B10, the IC50 in assay [4] was greater than 100 µM.
